Where two headings read alike, the source gives them in different places.
B1: LGP2 (FLAG-tagged) (natural protein, UniProt Q96C10 1-678, looked up)
chain: MELRSYQWEVIMPALEGKNIIIWLPTGAGKTRAAAYVAKRHLETVDGAKVVVLVNRVHLVTQHGEEFRRMLDGRWTVTTLSGDMGPRAGFGHLARCHDLLICTAELLQMALTSPEEEEHVELTVFSLIVVDECHHTHKDTVYNVIMSQYLELKLQRAQPLPQVLGLTASPGTGGASKLDGAINHVLQLCANLDTWCIMSPQNCCPQLQEHSQQPCKQYNLCHRRSQDPFGDLLKKLMDQIHDHLEMPELSRKFGTQMYEQQVVKLSEAAALAGLQEQRVYALHLRRYNDALLIHDTVRAVDALAALQDFYHREHVTKTQILCAERRLLALFDDRKNELAHLATHGPENPKLEMLEKILQRQFSSSNSPRGIIFTRTRQSAHSLLLWLQQQQGLQTVDIRAQLLIGAGNSSQSTHMTQRDQQEVIQKFQDGTLNLLVATSVAEEGLDIPHCNVVVRYGLLTNEISMVQARGRARADQSVYAFVATEGSRELKRELINEALETLMEQAVAAVQKMDQAEYQAKIRDLQQAALTKRAAQAAQRENQRQQFPVEHVQLLCINCMVAVGHGSDLRKVEGTHHVNVNPNFSNYYNVSRDPVVINKVFKDWKPGGVISCRNCGEVWGLQMIYKSVKLPVLKVRSMLLETPQGRIQAKKWSRVPFSVPDFDFLQHCAENLSDLSLD
B2: 44bp dsRNA (dsRNA)
RNA 1: CGAGCAGACUGGCAAUCCGGAUCUCCCAGGCCCGGCUUUCAAGC
RNA 2: GCUUGAAAGCCGGGCCUGGGAGAUCCGGAUUGCCAGUCUGCUCG
modifications: strand 2 5' amino modifier C6 (5AmMC6)

Columns and labels:
[1] = biological target: T1, MDA5 (full length, FLAG-tagged) (UniProt Q9BYX4 1-1025); experiment: co-IP
T1 sequence (looked up): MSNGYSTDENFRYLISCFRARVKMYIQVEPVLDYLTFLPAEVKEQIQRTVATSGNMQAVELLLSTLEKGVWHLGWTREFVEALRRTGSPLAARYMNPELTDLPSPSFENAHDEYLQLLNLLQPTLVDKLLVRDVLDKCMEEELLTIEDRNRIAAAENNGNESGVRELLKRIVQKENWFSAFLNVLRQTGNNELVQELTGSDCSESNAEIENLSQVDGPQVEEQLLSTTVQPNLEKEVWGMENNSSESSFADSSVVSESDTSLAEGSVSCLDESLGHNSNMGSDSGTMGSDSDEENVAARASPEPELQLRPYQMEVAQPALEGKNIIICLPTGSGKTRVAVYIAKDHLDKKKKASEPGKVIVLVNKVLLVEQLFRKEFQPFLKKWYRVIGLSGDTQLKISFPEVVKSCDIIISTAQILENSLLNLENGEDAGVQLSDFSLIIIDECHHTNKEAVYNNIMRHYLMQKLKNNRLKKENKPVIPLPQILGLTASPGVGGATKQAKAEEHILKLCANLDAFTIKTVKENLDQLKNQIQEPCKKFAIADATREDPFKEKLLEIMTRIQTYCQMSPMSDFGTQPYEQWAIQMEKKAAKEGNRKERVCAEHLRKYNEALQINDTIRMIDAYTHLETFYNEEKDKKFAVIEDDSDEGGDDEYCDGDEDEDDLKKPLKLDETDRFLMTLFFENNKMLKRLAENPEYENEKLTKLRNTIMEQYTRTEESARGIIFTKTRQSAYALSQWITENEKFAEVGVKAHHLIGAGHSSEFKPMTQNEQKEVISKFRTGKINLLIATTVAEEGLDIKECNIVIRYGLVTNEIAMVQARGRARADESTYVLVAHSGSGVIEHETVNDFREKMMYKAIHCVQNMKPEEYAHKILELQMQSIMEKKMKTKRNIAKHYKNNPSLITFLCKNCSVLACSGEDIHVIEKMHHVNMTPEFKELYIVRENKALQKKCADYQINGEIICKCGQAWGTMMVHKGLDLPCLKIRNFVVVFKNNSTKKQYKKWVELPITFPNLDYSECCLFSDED

[2] = biological target: T2, MDA5-C (UniProt Q9BYX4 295-1025); experiment: single-molecule TIRF
T2 sequence: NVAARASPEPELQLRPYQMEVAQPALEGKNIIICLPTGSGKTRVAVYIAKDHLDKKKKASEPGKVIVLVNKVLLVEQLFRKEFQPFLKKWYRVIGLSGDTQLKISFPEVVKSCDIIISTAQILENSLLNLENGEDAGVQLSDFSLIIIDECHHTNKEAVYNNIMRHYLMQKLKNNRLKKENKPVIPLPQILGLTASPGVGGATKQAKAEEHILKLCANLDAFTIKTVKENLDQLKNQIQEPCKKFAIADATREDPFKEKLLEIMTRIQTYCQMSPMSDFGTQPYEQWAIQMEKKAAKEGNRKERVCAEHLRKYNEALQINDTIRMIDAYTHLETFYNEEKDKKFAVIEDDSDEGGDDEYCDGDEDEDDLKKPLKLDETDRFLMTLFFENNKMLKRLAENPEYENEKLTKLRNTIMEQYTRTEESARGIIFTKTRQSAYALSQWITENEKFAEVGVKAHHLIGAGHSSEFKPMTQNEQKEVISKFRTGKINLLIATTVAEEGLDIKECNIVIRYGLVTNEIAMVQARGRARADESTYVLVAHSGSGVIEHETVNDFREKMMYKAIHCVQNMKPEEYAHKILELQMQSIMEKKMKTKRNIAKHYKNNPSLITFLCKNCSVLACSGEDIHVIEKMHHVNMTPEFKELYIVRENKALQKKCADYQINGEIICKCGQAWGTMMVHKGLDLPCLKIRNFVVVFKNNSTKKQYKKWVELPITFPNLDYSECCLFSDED

[3] = biological target: T3, LGP2 (UniProt Q96C10 1-678); experiment: single-molecule TIRF
T3 sequence: B1 chain

[4] = biological target: T2, MDA5-C; experiment: single-molecule TIRF; remark: listed apart in the source

| Binder | fold increase of co-precipitated LGP2 with poly(I:C) against without poly(I:C) [1] [fold] | Kd [2] [µM] | Kd [3] [µM] | Kd [4] [µM] |
| --- | --- | --- | --- | --- |
| B1 | > 3 |  |  |  |
| B2 |  | 0.771 ± 0.207 | 0.0561 ± 0.01 | 0.326 ± 0.138 |

— PMC4156907 (Molecular cell, 2014)
